Measurements: the supplement of paper PMC11246515
± gives the standard deviation of the averaged measurements.

Test: total protein half-life in vivo (active degradation + dilution); higher = more stable protein
[1] = E. coli NCM3722 delta-clpP delta-lon delta-hslV, growth: N-lim chemostat, doubling time 6 h
[2] = E. coli NCM3722 delta-clpP, growth: N-lim chemostat, doubling time 6 h
[3] = E. coli NCM3722 delta-hslV, growth: N-lim chemostat, doubling time 6 h
[4] = E. coli NCM3722 delta-lon, growth: N-lim chemostat, doubling time 6 h
[5] = E. coli NCM3722 delta-smpB, growth: N-lim chemostat, doubling time 6 h
[6] = wild type E. coli NCM3722, growth: C-lim chemostat, doubling time 3 h
[7] = wild type E. coli NCM3722, growth: C-lim chemostat, doubling time 6 h
[8] = wild type E. coli NCM3722, growth: C-lim chemostat, doubling time 12 h
[9] = wild type E. coli NCM3722, growth: N-lim chemostat, doubling time 6 h
[10] = wild type E. coli NCM3722, growth: N-lim chemostat, doubling time 12 h
[11] = wild type E. coli NCM3722, growth: P-lim chemostat, doubling time 6 h
[12] = wild type E. coli NCM3722, growth: P-lim chemostat, doubling time 12 h

MTMFQYYKRSRHFVFSAFIAFVFVLLCQNTAFARASSNGDLPTKADLQAQLDSLNKQKDLSAQDKLVQQDLTDTLATLDKIDRIKEETVQLRQKVAEAPEKMRQATAALTALSDVDNDEETRKILSTLSLRQLETRVAQALDDLQNAQNDLASYNSQLVSLQTQPERVQNAMYNASQQLQQIRSRLDGTDVGETALRPSQKVLMQAQQALLNAEIDQQRKSLEGNTVLQDTLQKQRDYVTANSARLEHQLQLLQEAVNSKRLTLTEKTAQEAVSPDEAARIQANPLVKQELEINQQLSQRLITATENGNQLMQQNIKVKNWLERALQSERNIKEQIAVLKGSLLLSRILYQQQQTLPSADELENMTNRIADLRLEQFEVNQQRDALFQSDAFVNKLEEGHTNEVNSEVHDALLQVVDMRRELLDQLNKQLGNQLMMAINLQINQQQLMSVSKNLKSILTQQIFWVNSNRPMDWDWIKAFPQSLKDEFKSMKITVNWQKAWPAVFIAFLAGLPLLLIAGLIHWRLGWLKAYQQKLASAVGSLRNDSQLNTPKAILIDLIRALPVCLIILAVGLILLTMQLNISELLWSFSKKLAIFWLVFGLCWKVLEKNGVAVRHFGMPEQQTSHWRRQIVRISLALLPIHFWSVVAELSPLHLMDDVLGQAMIFFNLLLIAFLVWPMCRESWRDKESHTMRLVTITVLSIIPIALMVLTATGYFYTTLRLAGRWIETVYLVIIWNLLYQTVLRGLSVAARRIAWRRALARRQNLVKEGAEGAEPPEEPTIALEQVNQQTLRITMLLMFALFGVMFWAIWSDLITVFSYLDSITLWHYNGTEAGAAVVKNVTMGSLLFAIIASMVAWALIRNLPGLLEVLVLSRLNMRQGASYAITTILNYIIIAVGAMTVFGSLGVSWDKLQWLAAALSVGLGFGLQEIFGNFVSGLIILFERPVRIGDTVTIGSFSGTVSKIRIRATTITDFDRKEVIIPNKAFVTERLINWSLTDTTTRLVIRLGVAYGSDLEKVRKVLLKAATEHPRVMHEPMPEVFFTAFGASTLDHELRLYVRELRDRSRTVDELNRTIDQLCRENDINIAFNQLEVHLHNEKGDEVTEVKRDYKGDDPTPAVG
total protein half-life in vivo [1]: 5.8 ± 0.075 h | total protein half-life in vivo [2]: 6.4 ± 0.7 h | total protein half-life in vivo [3]: 5.72 ± 0.36 h | total protein half-life in vivo [4]: 6.99 ± 1.1 h | total protein half-life in vivo [5]: 5.79 ± 0.11 h | total protein half-life in vivo [6]: 3.06 ± 0.094 h | total protein half-life in vivo [7]: 5.56 ± 0.15 h | total protein half-life in vivo [8]: 11.1 ± 2.1 h | total protein half-life in vivo [9]: 6.73 ± 0.33 h | total protein half-life in vivo [10]: 13.1 ± 1.6 h | total protein half-life in vivo [11]: 5.94 ± 0.43 h | total protein half-life in vivo [12]: 11.4 ± 0.85 h

MITHNFNTLDLLTSPVWIVSPFEEQLIYANSAAKLLMQDLTFSQLRTGPYSVSSQKELPKYLSDLQNQHDIIEILTVQRKEEETALSCRLVLRKLTETEPVIIFEGIEAPATLGLKASRSANYQRKKQGFYARFFLTNSAPMLLIDPSRDGQIVDANLAALNFYGYNHETMCQKHTWEINMLGRRVMPIMHEISHLPGGHKPLNFVHKLADGSTRHVQTYAGPIEIYGDKLMLCIVHDITEQKRLEEQLEHAAHHDAMTGLLNRRQFYHITEPGQMQHLAIAQDYSLLLIDTDRFKHINDLYGHSKGDEVLCALARTLESCARKGDLVFRWGGEEFVLLLPRTPLDTALSLAETIRVSVAKVSISGLPRFTVSIGVAHHEGNESIDELFKRVDDALYRAKNDGRNRVLAA
total protein half-life in vivo [1]: 6.16 h | total protein half-life in vivo [2]: 1.51 h | total protein half-life in vivo [6]: 0.79 ± 0.18 h | total protein half-life in vivo [7]: 1.87 ± 0.062 h | total protein half-life in vivo [8]: 1.42 ± 0.21 h | total protein half-life in vivo [9]: 1.31 h

MALKATIYKATVNVADLDRNQFLDASLTLARHPSETQERMMLRLLAWLKYADERLQFTRGLCADDEPEAWLRNDHLGIDLWIELGLPDERRIKKACTQAAEVALFTYNSRAAQIWWQQNQSKCVQFANLSVWYLDDEQLAKVSAFADRTMTLQATIQDGVIWLSDDKNNLEVNLTAWQQPS [P0AA97]
total protein half-life in vivo [1]: 5.6431 ± 0.0016 h | total protein half-life in vivo [2]: 3.9 ± 0.19 h | total protein half-life in vivo [3]: 4.82 ± 0.38 h | total protein half-life in vivo [4]: 5.25 ± 0.72 h | total protein half-life in vivo [5]: 3.354 ± 0.009 h | total protein half-life in vivo [8]: 8.84 ± 1.6 h | total protein half-life in vivo [9]: 4.38 h | total protein half-life in vivo [10]: 7.28 ± 0.26 h | total protein half-life in vivo [11]: 4.93 ± 0.28 h

MKIKSIRKAVLLLALLTSTSFAAGKNVNVEFRKGHSSAQYSGEIKGYDYDTYTFYAKKGQKVHVSISNEGADTYLFGPGIDDSVDLSRYSPELDSHGQYSLPASGKYELRVLQTRNDARKNKTKKYNVDIQIK
total protein half-life in vivo [1]: 5.26 ± 0.85 h | total protein half-life in vivo [2]: 6.18 ± 1.5 h | total protein half-life in vivo [3]: 6.58 ± 0.55 h | total protein half-life in vivo [4]: 5.92 ± 0.064 h | total protein half-life in vivo [5]: 5.41 ± 2.6 h | total protein half-life in vivo [6]: 3.4 ± 0.059 h | total protein half-life in vivo [7]: 5.32 ± 0.57 h | total protein half-life in vivo [8]: 9.98 ± 4 h | total protein half-life in vivo [9]: 6.12 ± 0.28 h | total protein half-life in vivo [10]: 11 ± 4.1 h | total protein half-life in vivo [11]: 4.9 ± 0.38 h | total protein half-life in vivo [12]: 11.1 ± 0.15 h

MKKSITTLDLNLLLCLQLLMQERSVTKAAKRINVTPSAVSKSLAKLRAWFDDPLFVNSPLGLSPTPLMVSMEQNLAEWMQMSNLLLDKPHHQTPRGLKFELAAESPLMMIMLNALSKQIYQRYPQATIKLRNWDYDSLDAITRGEVDIGFSGRESHPRSRELLSSLPLAIDYEVLFSDVPCVWLRKDHPALHQTWNLDTFLRYPHISICWEQSDTWALDNVLQELGRERTIAMSLPEFEQSLFMAAQPDNLLLATAPRYCQYYNQLHQLPLVALPLPFDESQQKKLEVPFTLLWHKRNSHNPKIVWLRETIKNLYASMA
total protein half-life in vivo [1]: 5.87 ± 0.7 h | total protein half-life in vivo [2]: 5.16 ± 1 h | total protein half-life in vivo [3]: 5.91 ± 0.94 h | total protein half-life in vivo [4]: 6.37 ± 0.5 h | total protein half-life in vivo [5]: 4.519 ± 0.029 h | total protein half-life in vivo [9]: 4.74 h | total protein half-life in vivo [10]: 12.2 h | total protein half-life in vivo [12]: 11.2 ± 0.6 h

MLKKILLLALLPAIAFAEELPAPVKAIEKQGITIIKTFDAPGGMKGYLGKYQDMGVTIYLTPDGKHAISGYMYNEKGENLSNTLIEKEIYAPAGREMWQRMEQSHWLLDGKKDAPVIVYVFADPFCPYCKQFWQQARPWVDSGKVQLRTLLVGVIKPESPATAAAILASKDPAKTWQQYEASGGKLKLNVPANVSTEQMKVLSDNEKLMDDLGANVTPAIYYMSKENTLQQAVGLPDQKTLNIIMGNK
total protein half-life in vivo [1]: 5.17 ± 0.63 h | total protein half-life in vivo [2]: 5.5 ± 0.14 h | total protein half-life in vivo [3]: 6.05 ± 0.24 h | total protein half-life in vivo [4]: 6.69 ± 1 h | total protein half-life in vivo [5]: 5.98 ± 0.33 h | total protein half-life in vivo [6]: 3.016 ± 0.006 h | total protein half-life in vivo [7]: 6.29 ± 0.74 h | total protein half-life in vivo [8]: 11.3 ± 1.4 h | total protein half-life in vivo [9]: 6.16 ± 0.33 h | total protein half-life in vivo [10]: 12.6 ± 0.62 h | total protein half-life in vivo [11]: 5.78 ± 0.55 h | total protein half-life in vivo [12]: 12.5 ± 0.27 h
